B1: Zinc finger MYM-type protein 3, residues 589 to 668; numbered along this chain, Q14202 (parent)
chain: LSCHYCHSLFSGKPEVLDWQDQVFQFCCRDCCEDFKRLRGVVSQCEHCRQEKLLHEKLRFSGVEKSFCSEGCVLLYKQDF

± gives the uncertainty stated by the source.

This data set covers variants of B1. Put plainly: abundance fitness (aPCA) (normalised: wild type 0, dead -1); higher = more abundant; growth selection in yeast, the domain comes from the species named. The settings on record: Homo sapiens.
As for L53K, the abundance fitness amounted to 0.187 ± 0.34.

With L53A, the abundance fitness was -0.313 ± 0.14.

Consider H47W, for which the abundance fitness stood at 0.246 ± 0.13.

For H47L, the abundance fitness is -0.388 ± 0.14.

Regarding H47A, the abundance fitness was -0.169 ± 0.13.

Take R59L: the abundance fitness was 0.251 ± 0.099.

Take R59N: the abundance fitness came out at 0.609 ± 0.27.

Consider R59K, for which the abundance fitness stood at 0.419 ± 0.13.

On to R59E, for which the abundance fitness is 0.386 ± 0.075.

On to R59D, for which the abundance fitness stood at 0.257 ± 0.11.

Take R59A: the abundance fitness was found to be 0.22 ± 0.089.

As for Y5N, the abundance fitness was found to be 0.021 ± 0.071.

Y5A: the abundance fitness was 0.267 ± 0.039.

With Y5I, the abundance fitness was -0.061 ± 0.062.

For Y5T, the abundance fitness is -0.009 ± 0.051.

In the case of S69V, the abundance fitness was -0.534 ± 0.17.

For the variant F26I, the abundance fitness was -0.731 ± 0.14.

Turning to F26A, the abundance fitness is -0.49 ± 0.053.

Take E56Y: the abundance fitness was -0.01 ± 0.5.

Turning to E56C, the abundance fitness is -0.041 ± 0.32.

R37C: the abundance fitness is -0.374 ± 0.21.

Consider R37P, for which the abundance fitness was -0.097 ± 0.13.

Consider P14C, for which the abundance fitness was -0.6 ± 0.13.

For P14G, the abundance fitness was -0.206 ± 0.042.

For the variant P14D, the abundance fitness was -0.24 ± 0.077.

For the variant C3M, the abundance fitness was -0.505 ± 0.077.

Take C3A: the abundance fitness is -0.906 ± 0.078.

As to G12D, the abundance fitness was -0.274 ± 0.079.

For G12F, the abundance fitness is -0.384 ± 0.065.

Turning to G12T, the abundance fitness came to 0.039 ± 0.044.

In the case of G12E, the abundance fitness amounted to 0.034 ± 0.046.

With F10E, the abundance fitness was -0.691 ± 0.08.

In the case of F10S, the abundance fitness is -0.316 ± 0.053.

F10D: the abundance fitness was -0.623 ± 0.079.

Consider F10K, for which the abundance fitness is -0.535 ± 0.085.

For F10I, the abundance fitness is -0.115 ± 0.064.

Take D18R: the abundance fitness came to 0.155 ± 0.044.

Turning to D18F, the abundance fitness is -0.101 ± 0.12.

With D18A, the abundance fitness was -0.007 ± 0.047.

As for D18S, the abundance fitness turned out to be 0.017 ± 0.048.

Consider L58Q, for which the abundance fitness was -0.146 ± 0.19.

As to L58F, the abundance fitness stood at 0.065 ± 0.28.

As for L58S, the abundance fitness was -0.254 ± 0.17.

E64C: the abundance fitness was -0.165 ± 0.42.

E64I: the abundance fitness was -0.344 ± 0.46.

Take E64G: the abundance fitness is -0.48 ± 0.21.

In the case of F24W, the abundance fitness was 0.051 ± 0.045.

F24I: the abundance fitness came to 0.072 ± 0.078.

Take F24V: the abundance fitness turned out to be 0.133 ± 0.041.

In the case of S11V, the abundance fitness was -0.418 ± 0.045.

Turning to S11W, the abundance fitness was -0.565 ± 0.063.

As to S11Q, the abundance fitness was -0.275 ± 0.14.

As for S11R, the abundance fitness is -0.406 ± 0.044.

In the case of S11I, the abundance fitness was -0.312 ± 0.093.

On to R29H, for which the abundance fitness is 0.275 ± 0.058.

Consider R29K, for which the abundance fitness is 0.002 ± 0.046.

For R29M, the abundance fitness is 0.235 ± 0.05.

Turning to R29G, the abundance fitness was 0.008 ± 0.04.

With R29I, the abundance fitness was determined as 0.014 ± 0.055.

For the variant R29S, the abundance fitness amounted to 0.009 ± 0.044.

Turning to R29C, the abundance fitness worked out at 0.08 ± 0.05.

On to L9M, for which the abundance fitness is -0.097 ± 0.053.

As for L9V, the abundance fitness came out at 0.015 ± 0.04.

Turning to L9N, the abundance fitness was -0.121 ± 0.056.

As for L9S, the abundance fitness is 0.009 ± 0.048.

On to L9F, for which the abundance fitness was -0.062 ± 0.061.

As for L9P, the abundance fitness came to 0.15 ± 0.049.

As to L9W, the abundance fitness was -0.095 ± 0.044.

Consider L9E, for which the abundance fitness was -0.021 ± 0.044.

V73L: the abundance fitness came to 0.268 ± 0.11.

With V73D, the abundance fitness is -0.521 ± 0.24.

On to V73T, for which the abundance fitness is -0.167 ± 0.19.

As for V73G, the abundance fitness was -0.188 ± 0.11.

As to V73S, the abundance fitness was 0.167 ± 0.093.

For the variant V73Q, the abundance fitness was -0.309 ± 0.2.

As for C31T, the abundance fitness was -1.02 ± 0.15.

As for C31V, the abundance fitness is -1.14 ± 0.15.

Consider C31G, for which the abundance fitness was -0.8 ± 0.078.

On to C31A, for which the abundance fitness was -0.655 ± 0.072.

On to C31W, for which the abundance fitness is -1.26 ± 0.21.

Turning to C31E, the abundance fitness was -0.573 ± 0.096.

In the case of D21Y, the abundance fitness was -0.386 ± 0.089.

For D21H, the abundance fitness was -0.182 ± 0.1.

Consider D21N, for which the abundance fitness was found to be 0.027 ± 0.062.

For the variant D21E, the abundance fitness was -0.114 ± 0.056.

As for D21V, the abundance fitness is -0.355 ± 0.052.

As for D21G, the abundance fitness is -0.114 ± 0.044.

As to D21P, the abundance fitness is -0.146 ± 0.053.

In the case of F80W, the abundance fitness is -0.146 ± 0.38.

For F80C, the abundance fitness stood at 0.093 ± 0.2.

For the variant F80S, the abundance fitness was 0.194 ± 0.14.

Turning to C45P, the abundance fitness was -1.1 ± 0.46.

For the variant C45S, the abundance fitness was -0.942 ± 0.17.

For C45T, the abundance fitness is -0.641 ± 0.26.

On to G62W, for which the abundance fitness was -0.85 ± 0.22.

Turning to G62A, the abundance fitness is -0.722 ± 0.18.

Turning to G62R, the abundance fitness is -0.788 ± 0.2.

With E51V, the abundance fitness was -0.143 ± 0.12.

As for E51C, the abundance fitness was 0.227 ± 0.23.

On to E51I, for which the abundance fitness was -0.546 ± 0.32.

For E51G, the abundance fitness was -0.393 ± 0.12.

On to Q78D, for which the abundance fitness came out at 0.567 ± 0.22.

For the variant Q78L, the abundance fitness came out at 0.466 ± 0.12.

Take Q78P: the abundance fitness was -0.595 ± 0.21.

With Q78H, the abundance fitness was 0.565 ± 0.25.

For the variant Q78M, the abundance fitness is -0.372 ± 0.26.

For Q25K, the abundance fitness worked out at 0.113 ± 0.05.

Regarding Q25G, the abundance fitness was found to be 0.088 ± 0.039.

As for C48S, the abundance fitness is -0.561 ± 0.43.

On to C48K, for which the abundance fitness is 0.19 ± 0.34.

C48W: the abundance fitness was -0.329 ± 0.16.

C48L: the abundance fitness is -0.578 ± 0.23.

On to C48E, for which the abundance fitness is -1.04 ± 0.31.

For K52P, the abundance fitness was -0.998 ± 0.35.

Turning to K52W, the abundance fitness is -0.699 ± 0.18.

Turning to K52S, the abundance fitness is -0.371 ± 0.16.

Regarding E33C, the abundance fitness was -0.151 ± 0.054.

Take E33W: the abundance fitness is -0.254 ± 0.047.

As to E33Q, the abundance fitness was -0.038 ± 0.044.

In the case of E33D, the abundance fitness worked out at 0.072 ± 0.056.

With E33H, the abundance fitness came out at 0.124 ± 0.064.

Regarding S61R, the abundance fitness is -0.137 ± 0.11.

On to S61K, for which the abundance fitness is -0.096 ± 0.16.

Take S61Q: the abundance fitness is -0.12 ± 0.17.

For the variant E70Q, the abundance fitness stood at 0.199 ± 0.14.

For the variant E70V, the abundance fitness is -0.066 ± 0.12.

Take E70T: the abundance fitness was -0.048 ± 0.21.

Regarding E70M, the abundance fitness was -0.152 ± 0.22.

E70D: the abundance fitness turned out to be 0 ± 0.5.

E70C: the abundance fitness came to 0.121 ± 0.14.

Regarding F35N, the abundance fitness is -0.924 ± 0.39.

As to F35H, the abundance fitness was -0.219 ± 0.067.

F35W: the abundance fitness was -0.118 ± 0.045.

Take F35C: the abundance fitness was -0.467 ± 0.082.

For the variant F35R, the abundance fitness was -0.726 ± 0.052.

For the variant F35P, the abundance fitness is -0.842 ± 0.077.

Take F35K: the abundance fitness was -0.529 ± 0.063.

Regarding F35A, the abundance fitness is -0.079 ± 0.041.

Take F35Q: the abundance fitness is -0.421 ± 0.071.

Regarding C72W, the abundance fitness is -0.53 ± 0.17.

In the case of C72A, the abundance fitness is -0.525 ± 0.2.

Consider C72L, for which the abundance fitness was -1.04 ± 0.23.

Take C72S: the abundance fitness is -0.935 ± 0.29.

On to C72K, for which the abundance fitness is -0.33 ± 0.24.

With F60G, the abundance fitness was -0.314 ± 0.097.

Consider F60S, for which the abundance fitness is 0.059 ± 0.12.

Regarding F60E, the abundance fitness worked out at 0.256 ± 0.1.

On to F60R, for which the abundance fitness is -0.327 ± 0.12.

As to V42M, the abundance fitness was determined as 0.422 ± 0.12.

With V41E, the abundance fitness amounted to 0.079 ± 0.13.

Turning to V41L, the abundance fitness was -0.181 ± 0.32.

In the case of V41K, the abundance fitness was found to be 0.398 ± 0.39.

With Y76E, the abundance fitness was -0.107 ± 0.11.

For the variant Y76S, the abundance fitness was -0.473 ± 0.16.

With Y76K, the abundance fitness was -0.048 ± 0.13.

For Y76D, the abundance fitness is -0.176 ± 0.17.

Take Y76T: the abundance fitness was -0.038 ± 0.22.

As for Q50K, the abundance fitness was -0.071 ± 0.21.

As for Q50A, the abundance fitness was -0.641 ± 0.18.

Regarding Q50S, the abundance fitness is -0.356 ± 0.24.

As to S8Y, the abundance fitness amounted to 0.192 ± 0.076.

As to S8E, the abundance fitness worked out at 0.154 ± 0.046.

Turning to S8I, the abundance fitness was 0.309 ± 0.065.

On to S8T, for which the abundance fitness was determined as 0.246 ± 0.05.

Take S8W: the abundance fitness is -0.015 ± 0.046.

In the case of S8F, the abundance fitness was -0.039 ± 0.084.

On to S8H, for which the abundance fitness was determined as 0.188 ± 0.074.

Source of the values: the Human Domainome abundance scans (Beltran et al. 2025).
